B2: XcpW (28–237), soluble truncation of the minor pseudopilin XcpW (domain or fragment)
chain: RMFDSVMQTDQATRVQEQRMRELVRAMGALERDLTQAVERPVRDELGDNRGAFLSEGENDQIVEFTRGGWRNPLGQARSRLQRVRWSLSGETLERRYWLVLDRAQDSKPRVQQVLDGVTALSWRFLDKEHNWQGHWPTDEGSEEERLESLPLAVEMTLEHRHYGKLVRVWRLLDPPLKQDQPQGQPGGENGENGEGGVPQPPEGMPGAPE
notes: XcpW, minor pseudopilin of the type II secretion system, Pseudomonas aeruginosa PAO1, residues 28-237; Tags removed by TEV protease; residues left from the TEV site and the cloning site may remain at the N-terminus; In the crystals the complex was under in situ chymotrypsin proteolysis; source: E. coli (BL21 (DE3); results say codon plus cells), purified (Ni-NTA, TEV cleavage, second Ni-NTA, SEC …)

Key:
[1] = target: T1, XcpX (29–313), soluble truncation of the minor pseudopilin XcpX (Pseudomonas aeruginosa PAO1, UniProt Q00518 29-313); test: SEC; three purified tag-free pseudopilins mixed at a molar ratio of 1.5:1:1 (XcpV:XcpW:XcpX), 4 °C overnight; Superdex 75, 25 mM HEPES pH 7.0, 150 mM NaCl, 1 mM CaCl2; peak fractions analysed by SDS-PAGE; conditions: both partners purified
T1 construct: XcpX, minor pseudopilin of the type II secretion system, Pseudomonas aeruginosa PAO1, residues 29-313; Tags removed by TEV protease; residues left from the TEV site and the cloning site may remain at the N-terminus; In the crystals the complex was under in situ chymotrypsin proteolysis; some loops are missing in the model of 6UTU; source: E. coli (BL21 (DE3); results say codon plus cells), …
T1 sequence: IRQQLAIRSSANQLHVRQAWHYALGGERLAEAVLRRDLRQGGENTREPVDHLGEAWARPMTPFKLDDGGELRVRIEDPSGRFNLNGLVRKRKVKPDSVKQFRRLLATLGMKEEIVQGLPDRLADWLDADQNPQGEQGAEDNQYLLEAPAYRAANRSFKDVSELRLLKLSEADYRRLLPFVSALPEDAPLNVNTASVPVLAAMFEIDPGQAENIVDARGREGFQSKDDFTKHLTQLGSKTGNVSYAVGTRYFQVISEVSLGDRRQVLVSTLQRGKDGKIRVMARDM

[2] = target: B2; test: as above; conditions: both partners purified

B1: XcpV (28–129), soluble truncation of the minor pseudopilin XcpV (domain or fragment)
chain: SASARSLQNASRLEDKTLAMWIADNRLNELQLEQTPPSSGRNQGELEFAGRRWEWRTQVDSTAEQDMRRVIVWVAAKPLGRERGSIEERAAARLVGFLGSQP
notes: XcpV, minor pseudopilin of the type II secretion system, Pseudomonas aeruginosa PAO1, residues 28-129; Tags removed by TEV protease; residues left from the TEV site and the cloning site may remain at the N-terminus; In the crystals the complex was under in situ chymotrypsin proteolysis; loops 59-66 and 103-113 are missing in the model of 6UTU; source: E. coli (BL21 (DE3)); results say codon plus …
stoichiometry N [1]: ~1 | stoichiometry N [2]: ~1

B2
stoichiometry N [1]: ~1

Reference: publication PMC6981927, “In Situ Proteolysis Condition-Induced Crystallization of the XcpVWX Complex in Different Lattices” (International Journal of Molecular Sciences, 2020)
